{"source": "paper PMC2839365", "biological_target": "ZU5 domain of ankyrin", "sequence (P16157 913-1068)": "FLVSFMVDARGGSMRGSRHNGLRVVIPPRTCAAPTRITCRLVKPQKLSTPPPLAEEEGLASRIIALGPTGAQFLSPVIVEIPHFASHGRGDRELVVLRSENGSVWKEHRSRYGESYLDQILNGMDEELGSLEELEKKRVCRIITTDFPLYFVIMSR", "assay": "ITC", "data": [{"substance": "βI14-15 D1700A (domain or fragment)", "values": [{"measurement": "dH", "value": 4.42, "unit": "kcal/mol"}]}, {"substance": "wild type βI-spectrin 14-15 di-repeat (domain or fragment)", "values": [{"measurement": "dH", "value": 5.98, "unit": "kcal/mol"}]}, {"substance": "βI14-15 E1784A (domain or fragment)", "values": [{"measurement": "dH", "value": 5.21, "unit": "kcal/mol"}]}, {"substance": "βI14-15 E1708A (domain or fragment)", "values": [{"measurement": "dH", "value": 3.27, "unit": "kcal/mol"}]}, {"substance": "βI14-15 E1703A (domain or fragment)", "values": [{"measurement": "dH", "value": 4.82, "unit": "kcal/mol"}]}, {"substance": "βI14-15 T1788A (domain or fragment)", "values": [{"measurement": "dH", "value": 2.08, "unit": "kcal/mol"}]}, {"substance": "βI14-15 D1701A (domain or fragment)", "values": [{"measurement": "dH", "value": 4.64, "unit": "kcal/mol"}]}, {"substance": "βI14-15 A1867P (domain or fragment)", "values": [{"measurement": "dH", "value": 0.904, "unit": "kcal/mol"}]}, {"substance": "βI14-15 Y1866A (domain or fragment)", "values": [{"measurement": "dH", "value": 2.52, "unit": "kcal/mol"}]}, {"substance": "βI14-15 E1710A (domain or fragment)", "values": [{"measurement": "dH", "value": 3.73, "unit": "kcal/mol"}]}, {"substance": "βI14-15 D1781A (domain or fragment)", "values": [{"measurement": "dH", "value": 5.52, "unit": "kcal/mol"}]}]}
